According to patent publication US7732178B2, “Laccase enzymes and their uses” (AB Enzymes Oy, priority 2004, dated 2010):
Entries after “also recorded” stand apart in the source; their conditions may differ.

What was measured:
Decolorization of dyes = assay: Decolorization of dyes; design: key to Decolorization of Remazol Brilliant blue, Time 30 min / Decolorization of Remazol Brilliant blue, Time 60 min: −: no visually detectable change; +: visually detectable fading of the colour; ++: considerable fading of the colour; +++: complete/almost complete decolorization; details: for Decolorization of Remazol Brilliant blue, Time 30 min / Decolorization of Remazol Brilliant blue, Time 60 min: dye 5 mg/50 ml, enzyme 100 nkat/50 ml, 50° C., pH 6
Experimental: The recombinant laccases CtLcc1, TaLcc2 and TaLcc4, derived from Trichoderma strains (Example 7) were tested for their ability to decolorize different dyes in the presence of the methyl syringate mediator (Example 7) or without it. The experiments were carried out in 100 ml shake flasks containing 50 ml of dye dissolved in citrate phosphate buffer pH 6. Dye concentration 5 mg/50 ml was used. Enzyme was dosed 100 nkat per 50 ml and the mediator 5 mg per 50 ml. Control samples contained only dye solution. The shake flasks were incubated at 50° C. for 30, 60 and 120 minutes. Samples of 3.5 ml were taken in test tubes for visual evaluation.

[1] = Stain removal, grass soiling; design: key to Grass L* / Grass a* / Grass b*: CIE L*a*b* color coordinates from reflectance; details: for Grass L* / Grass a* / Grass b*: 60 min, pH 6
In short: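 Soiled swatches treated in McIlvaine citrate-phosphate buffer pH 6 for 60 min at 40, 50 or 60 °C. Laccase 200 nkat/g ± methyl syringate mediator 10 mg/g fabric (also 20 nkat/g and 2 mg/g at 40 °C). Stain removal from L*a*b* reflectance before versus after treatment.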

[2] = Denim bleaching at different temperatures; design: key to After laccase treatment L* / After laccase treatment b* / Increase of L*: CIE L*a*b* colour coordinates (illuminant D65), reflectance; details: for After laccase treatment L* / After laccase treatment b* / Increase of L*: face side of denim, 30 min, pH 6, enzyme 200 nkat/g, mediator 10 mg/g
Experimental: (§1) Lee Cooper jeans (MASI Company Oy, Finland) that were desized and treated with neutral ECOSTONE® cellulase were used as test material. Laccase treatments were performed in LP-2 Launder Ometer as follows. About 10 g of denim swatches (15×14 cm) were loaded into 1.2 liter containers containing 200 ml Mc Ilvaine's citrate phosphate buffer pH 5, 6 or 7 and the containers were temperated. Enzyme with or without the mediator (methyl syringate, DeniLite II Assist, Novozymes) was added as laccase activity units. Enzyme was dosed 200 nkat/g and the mediator 10 mg/g on the weight of fabric. […] The Launder Ometer was run at 50° C. for 30 min and after that the temperature in Launder was raised to 80° C. for 10 min. The swatches were carefully rinsed with warm water, dried half-dry in a tumbler and after that air dried.
(§2) The bleaching effect was evaluated by measuring the colour as reflectance values with the Minolta Chromameter CM 1000 (Minolta Co.) using L*a*b* color space coordinates (illuminant D65). The colour from both sides of the swatches was measured before and after the laccase treatment. Each measurement was the average of several measurements.
The test system and denim were as in Example 7, except that the conditions during the laccase and mediator treatment in Launder were 30 min, pH 6 and temperature 30-70° C. (DeniLite II Base also at 80° C.) and the enzyme was inactivated by alkaline treatment instead of raising the temperature in Launder as follows. After removing swatches from the containers they were soaked in warm water containing NaOH (pH 11.5) for 10 min and rinsed carefully with warm water. The swatches were dried half-dry in a tumbler and after that air dried. The bleaching effect was evaluated by measuring the colour as reflectance values as in Example 7.

[3] = Denim bleaching at different pH values; design: key to After laccase treatment L* / After laccase treatment b* / Increase of L*: CIE L*a*b* colour coordinates (illuminant D65), Minolta reflectance; details: for After laccase treatment L* / After laccase treatment b* / Increase of L*: face side of denim, 30 min, 50° C.
Experimental: as §1, §2

[4] = Specific activity towards syringaldazine; assay type: biochemical; details: 25 mM MES buffer, pH 5.5
Experimental: Specific activities of the purified T. arenaria and C. thermophilum laccases were determined towards different laccase substrates.

[5] = 40° C., enzyme 20 nkat/g + mediator 2 mg/g (Mediator only: 0 nkat/g)
[6] = 40° C., enzyme 200 nkat/g + mediator 10 mg/g (Mediator only: 0 nkat/g)
[7] = 40° C., enzyme 200 nkat/g, mediator 0 mg/g
[8] = 60° C., enzyme 200 nkat/g + mediator 10 mg/g (Mediator only: 0 nkat/g)
[9] = 60° C., enzyme 200 nkat/g, mediator 0 mg/g
[10] = pH 5, enzyme 200 nkat/g without the mediator, or mediator 10 mg/g alone
[11] = pH 5, enzyme 200 nkat/g, mediator 10 mg/g
[12] = pH 6, enzyme 200 nkat/g without the mediator, or mediator 10 mg/g alone
[13] = pH 6, enzyme 200 nkat/g, mediator 10 mg/g
[14] = pH 7, enzyme 200 nkat/g without the mediator, or mediator 10 mg/g alone
[15] = pH 7, enzyme 200 nkat/g, mediator 10 mg/g

B1: CtLcc1: Chaetomium thermophilum ALKO 4265 laccase, SEQ ID NO: 47, produced in Trichoderma reesei (protein)
chain: MKFLTYATALLGALTAVVGAIPTRSGTKKKYIRDGPGPCHTPSNRACWAPGFDINTDYEVNTPNTGVTRNYTLTLTEEDNWTGPDGVVKEKIMLVNGKTLGPTIEANWGDWIEVKVINNLLTNGTSIHWHGIHQKGSNLHDGANGVTECPIPPNGGQRTYRFRAQQYGTSWYHSHFSAQYGNGIVGPIVIHGPASLPYDIDLGPFPLTDYYYKSADELVRHTQNNGPPFSDNVLFNGTGVHPQTGHGQYAKVTLTPGKRHRLRIINMSTENHFQVSLVGHQFTVIAADMVPVHSYTTDSLFLAVGQRYDVTIDASQTPGNYWFNVTFGGGFACGGSFNPNPAAIFHYEGAPDALPTDPGVPPRDHNCLDTLDLVPVVPRNVQVNQFVKKPENTLPVELSLGGTPLFVWKVNGSAIDVDWGNPVLQYVMDRNTSYRQADNIVEVNGVNQWTYWLIENDPNGAFSLPHPMHLHGHDFLIVGRSPDVPPGSNQRYNFDPATDIYRLRGQNPTRRDVAMLPAGGWLLLAFLTDNPGAWLFHCHIAWHVSGGLSVDFLERPNDLRNSILQHDKDEFNRVCNEWRTYWPNSPHPKIDSGLKHRWVEESEWLVR
modifications: Chaetomium thermophilum ALKO4265; (1)..(607) Deduced amino acid sequence of Chaetomium thermophilum ALKO4265 CtLcc1
Decolorization of dyes; mediator 0 mg/50 ml
  Decolorization of Remazol Brilliant blue, Time 30 min: −
  Decolorization of Remazol Brilliant blue, Time 60 min: −
Decolorization of dyes; mediator 5 mg/50 ml
  Decolorization of Remazol Brilliant blue, Time 30 min: ++
  Decolorization of Remazol Brilliant blue, Time 60 min: +++
Decolorization of dyes; in the presence of the mediator
  decolorization of Remazol Brilliant Blue: very effectively; also recorded: to great extend or completely
[1]; [5]
  Grass L*: 79.94
  Grass a*: −1.20
  Grass b*: 16.17
[1]; [6]
  Grass L*: 79.74
  Grass a*: 0.17
  Grass b*: 16.48
[1]; [7]
  Grass L*: 80.17
  Grass a*: −4.14
  Grass b*: 17.45
[1]; [8]
  Grass L*: 79.92
  Grass a*: −1.15
  Grass b*: 18.55
[1]; [9]
  Grass L*: 79.04
  Grass a*: −3.69
  Grass b*: 18.12
[1]; CtLcc1 at 60° C., TaLcc2 at 50° C.
  removal of grass soiling with the mediator: effective
[2]; 40-50 ° C. and pH 6
  decolorization of denim (increase of lightness) compared to Denilite II Base: more efficient
[2]; 30° C.
  After laccase treatment L*: 31.78
  After laccase treatment b*: −19.15
  Increase of L*: 2.44
[2]; 40° C.
  After laccase treatment L*: 34.43
  After laccase treatment b*: −18.77
  Increase of L*: 5.72
[2]; 50° C., alkaline inactivation
  After laccase treatment L*: 36.78
  After laccase treatment b*: −18.96
  Increase of L*: 8.26
[2]; 60° C.
  After laccase treatment L*: 37.40
  After laccase treatment b*: −18.29
  Increase of L*: 8.52
[2]; 70° C.
  After laccase treatment L*: 34.16
  After laccase treatment b*: −17.91
  Increase of L*: 5.23
[3]; [10]
  After laccase treatment L*: 28.88
  After laccase treatment b*: −18.65
  Increase of L*: 0.46
[3]; [11]
  After laccase treatment L*: 35.07
  After laccase treatment b*: −18.38
  Increase of L*: 5.91
[3]; [12]
  After laccase treatment L*: 28.83
  After laccase treatment b*: −18.53
  Increase of L*: −0.13
[3]; [13]
  After laccase treatment L*: 40.08
  After laccase treatment b*: −17.18
  Increase of L*: 11.19
[3]; [14]
  After laccase treatment L*: 29.32
  After laccase treatment b*: −18.52
  Increase of L*: 0.73
[3]; [15]
  After laccase treatment L*: 36.69
  After laccase treatment b*: −17.88
  Increase of L*: 8.31
[3]; pH values 6 and 7, with mediator
  decolorization of indigo dye of denim compared to DeniLite II Base: more efficient
[4]
  Specific activity on syringaldazin: 400 nkat/mg
